Experimental data as given in patent US20240228542A1, “LYTIC DOMAIN FUSION CONSTRUCTS, CHECKPOINT INHIBITORS, AND METHODS OF MAKING AND USING SAME” (A28 Therapeutics Inc., priority 2020, published 2024).

Experiments:
OVCAR-3 xenograft = test: OVCAR-3 ovarian cancer xenograft; type: in vivo, Nu/Nu mice; conditions: for tumor volume: OVCAR-3 xenograft, CLIP71 2 mg/kg, cisplatinum 10 mg/kg
Description: In brief, Nu/Nu female mice, inbred strain, age 5 weeks (Harlan-Sprague Dawley) were injected subcutaneously with a NIH:OVCAR-3 cells/Matrigel suspension (4.6×10^6 cells/mouse). Treatment was started on day 33 after tumor cell injection when the tumors were established and continued on days 41 and 47. The doses for the 3 weekly injections were 0.02, 0.2 and 2 mg/kg body weight, given as a single bolus intravenous injection via lateral tail vein administered once a week for three weeks on days 33, 41 and 47. Necropsies were conducted on day 52. Data are presented as mean […]SEM. Arrows show dosing.
A group of 9 tumor bearing mice was sacrificed on day 33 and served as baseline group. All mice were necropsied 51-52 days after tumor cell injection. Tumor volumes and bodyweights were recorded twice weekly during the study, as well as overall veterinarian examination of mice was conducted.
Primary tumors, liver, kidney, pancreas, heart, lung, and spleen were collected, fixed in formalin and prepared for histological evaluation. Tumor weights were measured at necropsy, part of the tumors were frozen at −80° C. for LH/CG and LHRH receptor assay determination.
As a biomarker for drug activity, CA 125 was determined in serum, collected from each individual mouse at necropsy using a Enzyme Linked Immunoassay for quantitative determination of ovarian cancer antigen CA125 (Assay kit Genway, Biotech, Inc. San Diego, CA, Catalog #40-052-115009, #BC-1013 according to the manufacturer).
LHRH receptor levels were assessed from formalin fixed tumors. Quantitative immunoperoxidase image analysis was conducted with the Ventana Image Analysis System (VIAS) adjunctive computer assisted image analysis system functionally connected to an interactive microscope (Axio Imager). The quantitative analysis was conducted with the program for quantification of Her2/neu receptor that included morphometric and colorimetric analysis. Receptor status results were reported as percentage of cells showing positive staining of the LHRH receptors under the following criteria: 0 non-immunoreactive, 1+: 1-25% positive, 2+: 26-50% positive, 3+: 51-75% positive cells.

OVCAR-3 = test: Cytotoxicity in OVCAR-3 ovarian cancer cells; type: cell-based; conditions: OVCAR-3 ovarian cancer cell line; read-out: IC50 in Human Cancer Cell Lines
Description: (§1) MDA-MB-435S.luc cells were grown in Leibovitz's L 15 medium, 10% fetal bovine serum, 0.01 mg/ml bovine insulin, 100 IU/ml penicillin, 100 microg/ml streptomycin. The cells were cultured in tight closed flasks. The incubations were conducted using 96 well plates at 10,000 cells per well. Cells were typically seeded into 96 well plates and media was replaced after 48 hours of incubation. Each assay was conducted at increasing concentrations of 0, 0.001, 0.01, 0.05, 0.1, 0.5, 1, 2, 5, 10 and 100 micromolar doses of lytic peptide-binding domain conjugate. Each lytic peptide-binding domain conjugate provided in lyophilized form and was freshly dissolved in saline and added to cells. The duration of incubation was typically 24 h, and cell viability assays were conducted using formazan conversion assays (MTT assay). Controls contained saline or 0.1% triton as reference for 0 and 100% cell death, respectively.
(§2) To ascertain the IC50 of various fusion constructs on different human cancer cell lines compared to cisplatinum, IC50 of fusion constructs were evaluated as in Table 3.

SKOV-3 = test: Cytotoxicity in SKOV-3 ovarian cancer cells; type: cell-based; conditions: SKOV-3 ovarian cancer cell line; read-out: IC50 in Human Cancer Cell Lines
Description: as §1, §2

AN3-CA = test: Cytotoxicity in AN3-CA endometrial cancer cells; type: cell-based; conditions: AN3-CA endometrial cancer cell line; read-out: IC50 in Human Cancer Cell Lines
Description: as §1, §2

LNCaP = test: Cytotoxicity in LNCaP prostate cancer cells; type: cell-based; conditions: LNCaP prostate cancer cell line; read-out: IC50 in Human Cancer Cell Lines
Description: as §1, §2

MDA-MB-435S cells = conditions: reported; cited from earlier work
[1] = molecular target: T1, luteinizing hormone-releasing hormone receptor (LHRH-R), on murine cancer cell lines (mouse) (UniProt Q01776); test: cell-based or functional assay
T1 sequence (looked up): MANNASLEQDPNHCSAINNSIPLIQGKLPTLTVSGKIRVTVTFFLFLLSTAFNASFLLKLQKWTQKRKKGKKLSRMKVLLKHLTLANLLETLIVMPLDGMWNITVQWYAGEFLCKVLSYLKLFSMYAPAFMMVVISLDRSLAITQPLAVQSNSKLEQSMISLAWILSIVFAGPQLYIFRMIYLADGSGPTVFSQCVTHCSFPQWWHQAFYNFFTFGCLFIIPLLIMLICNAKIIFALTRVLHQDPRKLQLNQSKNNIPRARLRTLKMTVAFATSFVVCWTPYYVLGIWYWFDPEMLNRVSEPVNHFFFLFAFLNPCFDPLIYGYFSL

[2] = molecular target: T2, luteinizing hormone-releasing hormone (LHRH) receptor, on human cancer cell lines (human) (UniProt P30968); test: cell-based or functional assay
T2 sequence (looked up): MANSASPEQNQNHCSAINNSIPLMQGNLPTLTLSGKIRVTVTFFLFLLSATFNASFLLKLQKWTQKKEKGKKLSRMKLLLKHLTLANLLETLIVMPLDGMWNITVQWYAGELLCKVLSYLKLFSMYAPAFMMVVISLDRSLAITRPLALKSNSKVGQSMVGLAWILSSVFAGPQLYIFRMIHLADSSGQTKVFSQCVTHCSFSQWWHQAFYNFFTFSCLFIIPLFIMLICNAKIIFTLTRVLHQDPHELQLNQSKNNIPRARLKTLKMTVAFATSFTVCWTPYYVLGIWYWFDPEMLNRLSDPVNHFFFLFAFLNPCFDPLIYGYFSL

[3] = molecular target: chorionic gonadotrophin (CG) receptor, on MDA-MB-435S.luc cells (human) (UniProt P22888); test: cell-based or functional assay

N.N.[Cl][Pt][Cl] [Cisplatinum, reference compound]
tumor weights (OVCAR-3 xenograft; OVCAR-3 xenograft at necropsy): not effective in reducing tumor weights
tumor volume (OVCAR-3 xenograft): no reduction in tumor volume
tumor volume (OVCAR-3 xenograft; listed as cisplatinum): tumor growth was observed
IC50 (OVCAR-3): 184 µM
IC50 (SKOV-3): 321 ± 10 µM
IC50 (AN3-CA): 11.8 ± 0.16 µM
IC50 (LNCaP): 19.9 ± 1.4 µM

COc1cccc2c1C(=O)c1c(O)c3c(c(O)c1C2=O)C[C@@](O)(C(=O)CO)C[C@@H]3O[C@H]1C[C@H](N)[C@H](O)[C@H](C)O1 [doxorubicin]
time to destroy human melanoma cells in vitro (MDA-MB-435S cells): 4 h

Phor18-LHRH (338613) (peptide)
IC50 of cell viability, murine ovarian cancer cell lines, 72 hours [1]: 1 to 1.3 µM
IC50 of cytotoxicity (CellTiter Glo), EMT-6 cells, 4 h [1]: 5.8 µM
IC50 of cytotoxicity (CellTiter Glo), EMT-6 cells, 8 h [1]: 5.7 µM
IC50 of cytotoxicity (CellTiter-Glo), 2C12 cells, 24 h [1]: 1.02 µM
IC50 of cytotoxicity (CellTiter-Glo), ID8 cells, 24 h [1]: 1.37 µM
IC50 of cytotoxicity (CellTiter-Glo), IF5 cells, 24 h [1]: 1.01 µM
IC50 of cytotoxicity (CellTiter-Glo), IG10 cells, 24 h [1]: 1.03 µM
IC50 of cytotoxicity (CellTiter-Glo), cell line printed as 242, 24 h [1]: 1.38 µM
IC50 of cytotoxicity (MTT), MDA-MB-435S cells, 0.5 hour [2]: 1.2 µM
IC50 of cytotoxicity (MTT), MDA-MB-435S cells, 1 hour [2]: 0.6 µM
IC50 of cytotoxicity (MTT), OVCAR-3 cells, increasing incubation time, value 1 of 7 [2]: 6.7 µM
IC50 of cytotoxicity (MTT), OVCAR-3 cells, increasing incubation time, value 2 of 7 [2]: 5.6 µM
IC50 of cytotoxicity (MTT), OVCAR-3 cells, increasing incubation time, value 3 of 7 [2]: 5.3 µM
IC50 of cytotoxicity (MTT), OVCAR-3 cells, increasing incubation time, value 4 of 7 [2]: 1.6 µM
IC50 of cytotoxicity (MTT), OVCAR-3 cells, increasing incubation time, value 5 of 7 [2]: 1.5 µM
IC50 of cytotoxicity (MTT), OVCAR-3 cells, increasing incubation time, value 6 of 7 [2]: 0.5 µM
IC50 of cytotoxicity (MTT), OVCAR-3 cells, increasing incubation time, value 7 of 7 [2]: 0.5 µM

Phor21-βCG-ala (323033) (peptide)
IC50 of cytotoxicity, MDA-MB-435S.luc cells (carry CG receptors) [3]: 2.3 µM
